Assay results: article PMC2615627

B1: poly(dT)31 (ssDNA)
DNA: TTTTTTTTTTTTTTTTTTTTTTTTTTTTTTT
B2: Oligo 31 (ssDNA)
DNA: GATCTCGGCGACGCACACGCGTCCTAACTCG

Assays:
[1] = biological target: T1, hRPA (replication protein A heterotrimer RPA1+RPA2+RPA3) (human (Homo sapiens), UniProt P27694;P15927;P35244 1-616;1-270;1-121); assay: EMSA
[2] = biological target: T1, hRPA (replication protein A …); assay: EMSA; remark: listed apart in the source

T1 sequence (P27694 whole entry, chain 1 of 3): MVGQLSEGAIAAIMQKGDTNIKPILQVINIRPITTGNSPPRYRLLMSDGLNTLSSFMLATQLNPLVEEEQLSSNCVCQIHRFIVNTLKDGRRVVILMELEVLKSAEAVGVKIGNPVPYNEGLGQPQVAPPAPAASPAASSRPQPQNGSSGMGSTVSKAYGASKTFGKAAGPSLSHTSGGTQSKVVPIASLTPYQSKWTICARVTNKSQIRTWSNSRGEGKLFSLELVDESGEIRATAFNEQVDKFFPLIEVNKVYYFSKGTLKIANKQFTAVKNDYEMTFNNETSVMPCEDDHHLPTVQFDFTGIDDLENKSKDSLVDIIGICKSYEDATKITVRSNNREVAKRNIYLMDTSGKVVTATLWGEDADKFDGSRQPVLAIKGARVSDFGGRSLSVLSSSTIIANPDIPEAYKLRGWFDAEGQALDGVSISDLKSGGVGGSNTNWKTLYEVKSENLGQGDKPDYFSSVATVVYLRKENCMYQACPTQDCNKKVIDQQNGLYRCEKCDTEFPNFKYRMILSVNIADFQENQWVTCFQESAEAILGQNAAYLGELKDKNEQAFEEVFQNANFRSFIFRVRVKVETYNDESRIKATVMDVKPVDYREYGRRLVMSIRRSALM
T1 sequence (P15927 whole entry, chain 2 of 3): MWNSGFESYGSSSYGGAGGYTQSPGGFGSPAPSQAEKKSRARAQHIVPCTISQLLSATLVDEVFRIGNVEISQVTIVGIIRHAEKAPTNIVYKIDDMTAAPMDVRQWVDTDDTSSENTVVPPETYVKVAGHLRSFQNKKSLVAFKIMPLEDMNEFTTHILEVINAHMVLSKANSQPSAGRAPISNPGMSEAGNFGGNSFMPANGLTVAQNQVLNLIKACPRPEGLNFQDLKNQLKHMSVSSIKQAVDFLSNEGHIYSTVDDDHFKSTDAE
T1 sequence (P35244 whole entry, chain 3 of 3): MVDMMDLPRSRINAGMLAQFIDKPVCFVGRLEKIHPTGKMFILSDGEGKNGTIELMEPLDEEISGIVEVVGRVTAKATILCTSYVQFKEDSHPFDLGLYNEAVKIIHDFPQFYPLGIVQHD

Row | Binder | binding signal [1] | binding result [2]
1 | B1 | ~10 fold higher affinity than Oligo 31 | –
2 | B2 | – | binds
